{"source": "patent US8784824B2", "about": "“Compositions and methods for treatment of angiogenesis in pathological lesions” (Philogen S.p.A., priority 2000, dated 2014)", "key": {"[1]": {"test_system": "blood vessels of glioblastoma tumor", "assay": "Immunohistochemistry on glioblastoma tumor", "procedure": "(§1) Tumor and organ specimens were processed for microautoradiography to assess the pattern of ^125I-L19-IL2 fusion protein distribution within the tumors or organs as described by Tarli et al. 1999 (12). Immunohistochemical procedures were carried out as reported by Castellani et al. 1994 (11). The nonparametric Mann-Whitney test was used to assess the differences in tumor weights between the three different groups of animals (mice treated with L19-IL2 fusion protein, with mixture of L19+IL2 and PBS).\n(§2) Tumor and organ specimens were processed for microautoradiography to assess the pattern of ^125I-L19TNFα fusion protein distribution within the tumors or organs as described by Tarli et al (Blood, 94: 192-198, 1999). Immunohistochemical procedures were carried out as reported by Castellani et al (Int. J. Cancer, 59: 612-618, 1994)."}, "[2]": {"test_system": "C51 murine colon carcinoma", "assay": "In vivo treatment with L19-mTNFα fusion protein", "set-up": "species or system mouse", "procedure": "Treatment with purified L19-mTNFα fusion protein was preformed in groups of 3 Balb.C mice each injected subcutaneously with 10^6 of C51 cells. At day 12 after C51 cell injection, 0.8 μg/g of L19-TNFα fusion protein was injected into the tail vein of each animal. A similar group of 3 animals was injected with Phosphate Saline Buffer, pH 7.4 (PBS). The animals were followed for systemic toxicity (weight loss) and tumor growth daily for 6 days. At the end, animals were sacrificed and tumors were placed in fixative for histological analysis and snap frozen for immunohistochemical analysis.\nThe efficacy of the L19-mTNFα fusion protein in suppressing tumor growth was tested on one experimental tumor model of mouse adenocarcinoma, C51. For tumor induction, 10^6 C51 cells were injected subcutaneously in Balb/C animals. After 12 days (when the tumor reaches approximately 100-200 mm^3) animals received intravenous injections of either PBS (3 animals) or L19-mTNFα fusion protein (3 animals). The animals were monitored for weight and tumor growth daily for 6 days. […] The weight loss was always less than 6% throughout the experiment time."}, "[3]": {"test_system": "blood vessels of the F9 mouse tumor", "assay": "Microautoradiography of tumors and organs of F9 tumor-bearing mice", "assay_type": "in vivo", "procedure": "as §1, §2"}, "[4]": {"molecular_target": "ED-B domain of fibronectin (Homo sapiens, UniProt P02751)", "sequence (P02751 1271-1359 limits assumed)": "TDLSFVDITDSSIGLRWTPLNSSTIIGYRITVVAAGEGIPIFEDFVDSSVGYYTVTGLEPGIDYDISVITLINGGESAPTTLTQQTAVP", "assay": "Immunoreactivity of L19-mTNFα after radiolabelling", "assay_type": "binding", "set-up": "recombinant ED-B domain of human Fibronectin (FN) as antigen; made in house", "details": "iodine-125, Iodogen method", "procedure": "(§3) Purified L19-mTNFα was radiolabeled with iodine-125 using the Iodogen method (Salacinski et al., Anal. Biochem., 117: 136, 1981)(Pierce, Rockford, Ill.). After labelling, the immunoreactivity was more than 90%. 129 mice with subcutaneously implanted F9 murine teratocarcinoma were intravenously injected with 4 μg (2 μCi) of protein in 100 μl saline solution. Three animals were used for each time point. Mice were sacrificed at 3, 6, 24 and 48 hours after injection. The organs were weighed and the radioactivity was counted. All organs and tumors were placed in fixative for histological analysis and microautoradiography. Targeting results of representative organs are expressed as percent of the injected dose per gram of tissue (% ID/g)."}, "[5]": {"test_system": "subcutaneously implanted F9 murine teratocarcinoma", "assay": "Biodistribution of radiolabeled L19-mTNFα fusion protein in tumor-bearing mice", "assay_type": "in vivo, mouse", "details": "F9 tumor-bearing 129 mice", "procedure": "as §3"}, "[6]": {"details": "in vivo; cited from earlier work"}}}
{"substance": "L19-mTNFα fusion protein: fusion of mouse TNFα to the scFv L19 via a 15 amino acid linker", "values": [{"measurement": "immunohistochemical staining of blood vessels", "setting": "[1]", "result": "strongly stain blood vessels of glioblastoma tumor"}, {"measurement": "tumor growth with respect to animals injected with PBS", "setting": "[2]; 0.8 μg/g i.v. at day 12, followed 6 days (FIG. 23)", "result": "decrease in tumor growth"}, {"measurement": "weight loss", "setting": "[2]; throughout the experiment time (6 days)", "result": "less than 6%"}, {"measurement": "accumulation of radiolabeled fusion protein in tumor blood vessels", "setting": "[3]; F9 mouse tumor, microradiographic analysis", "result": "Accumulation of the radiolabeled fusion protein was shown"}, {"measurement": "accumulation of radiolabeled fusion protein in vessels of other organs", "setting": "[3]; organs of F9 tumor bearing mice", "result": "No accumulation"}, {"measurement": "immunoreactivity after labelling", "setting": "[4]", "result": "more than 90%"}, {"measurement": "% ID/g Bladder", "setting": "[5]; 3 h after i.v. injection", "result": "37.52 ± 26.7", "unit": "% ID/g"}, {"measurement": "% ID/g Blood", "setting": "[5]; 3 h after i.v. injection", "result": "8.39 ± 5.0", "unit": "% ID/g"}, {"measurement": "% ID/g Heart", "setting": "[5]; 3 h after i.v. injection", "result": "2.69 ± 0.7", "unit": "% ID/g"}, {"measurement": "% ID/g Kidney", "setting": "[5]; 3 h after i.v. injection", "result": "7.96 ± 3.0", "unit": "% ID/g"}, {"measurement": "% ID/g Liver", "setting": "[5]; 3 h after i.v. injection", "result": "8.42 ± 1.9", "unit": "% ID/g"}, {"measurement": "% ID/g Lung", "setting": "[5]; 3 h after i.v. injection", "result": "6.56 ± 1.7", "unit": "% ID/g"}, {"measurement": "% ID/g Muscle", "setting": "[5]; 3 h after i.v. injection", "result": "1.33 ± 0.3", "unit": "% ID/g"}, {"measurement": "% ID/g Skin", "setting": "[5]; 3 h after i.v. injection", "result": "2.83 ± 1.3", "unit": "% ID/g"}, {"measurement": "% ID/g Spleen", "setting": "[5]; 3 h after i.v. injection", "result": "9.08 ± 2.0", "unit": "% ID/g"}, {"measurement": "% ID/g Thyroid", "setting": "[5]; 3 h after i.v. injection", "result": "3.21 ± 0.8", "unit": "% ID/g"}, {"measurement": "% ID/g Tumor", "setting": "[5]; 3 h after i.v. injection", "result": 22, "unit": "% ID/g"}, {"measurement": "% ID/g Tumor", "setting": "[5]; 3 h after i.v. injection, listed as L19-TNFa fusion protein", "result": "22.02 ± 2.3", "unit": "% ID/g"}, {"measurement": "% ID/g Bladder", "setting": "[5]; 6 h after i.v. injection", "result": "18.14 ± 9.1", "unit": "% ID/g"}, {"measurement": "% ID/g Blood", "setting": "[5]; 6 h after i.v. injection", "result": "2.13 ± 0.9", "unit": "% ID/g"}, {"measurement": "% ID/g Heart", "setting": "[5]; 6 h after i.v. injection", "result": "1.32 ± 0.5", "unit": "% ID/g"}, {"measurement": "% ID/g Kidney", "setting": "[5]; 6 h after i.v. injection", "result": "6.06 ± 5.2", "unit": "% ID/g"}, {"measurement": "% ID/g Liver", "setting": "[5]; 6 h after i.v. injection", "result": "2.39 ± 0.9", "unit": "% ID/g"}, {"measurement": "% ID/g Lung", "setting": "[5]; 6 h after i.v. injection", "result": "2.79 ± 1.4", "unit": "% ID/g"}, {"measurement": "% ID/g Muscle", "setting": "[5]; 6 h after i.v. injection", "result": "0.76 ± 0.2", "unit": "% ID/g"}, {"measurement": "% ID/g Skin", "setting": "[5]; 6 h after i.v. injection", "result": "1.68 ± 0.9", "unit": "% ID/g"}, {"measurement": "% ID/g Spleen", "setting": "[5]; 6 h after i.v. injection", "result": "3.29 ± 0.9", "unit": "% ID/g"}, {"measurement": "% ID/g Thyroid", "setting": "[5]; 6 h after i.v. injection", "result": "2.91 ± 1.8", "unit": "% ID/g"}, {"measurement": "% ID/g Tumor", "setting": "[5]; 6 h after i.v. injection", "result": "11.57 ± 2.7", "unit": "% ID/g"}, {"measurement": "% ID/g Bladder", "setting": "[5]; 24 h after i.v. injection", "result": "2.9 ± 2.2", "unit": "% ID/g"}, {"measurement": "% ID/g Blood", "setting": "[5]; 24 h after i.v. injection", "result": "0.09 ± 0.0", "unit": "% ID/g"}, {"measurement": "% ID/g Heart", "setting": "[5]; 24 h after i.v. injection", "result": "0.06 ± 0.0", "unit": "% ID/g"}, {"measurement": "% ID/g Kidney", "setting": "[5]; 24 h after i.v. injection", "result": "0.18 ± 0.0", "unit": "% ID/g"}, {"measurement": "% ID/g Liver", "setting": "[5]; 24 h after i.v. injection", "result": "0.15 ± 0.0", "unit": "% ID/g"}, {"measurement": "% ID/g Lung", "setting": "[5]; 24 h after i.v. injection", "result": "0.18 ± 0.1", "unit": "% ID/g"}, {"measurement": "% ID/g Muscle", "setting": "[5]; 24 h after i.v. injection", "result": "0.05 ± 0.0", "unit": "% ID/g"}, {"measurement": "% ID/g Skin", "setting": "[5]; 24 h after i.v. injection", "result": "0.03 ± 0.0", "unit": "% ID/g"}, {"measurement": "% ID/g Spleen", "setting": "[5]; 24 h after i.v. injection", "result": "0.13 ± 0.0", "unit": "% ID/g"}, {"measurement": "% ID/g Thyroid", "setting": "[5]; 24 h after i.v. injection", "result": "1.93 ± 0.5", "unit": "% ID/g"}, {"measurement": "% ID/g Tumor", "setting": "[5]; 24 h after i.v. injection", "result": "9.77 ± 1.4", "unit": "% ID/g"}, {"measurement": "% ID/g Bladder", "setting": "[5]; 48 h after i.v. injection", "result": "0.08 ± 0.0", "unit": "% ID/g"}, {"measurement": "% ID/g Blood", "setting": "[5]; 48 h after i.v. injection", "result": "0.01 ± 0.0", "unit": "% ID/g"}, {"measurement": "% ID/g Heart", "setting": "[5]; 48 h after i.v. injection", "result": "0.01 ± 0.0", "unit": "% ID/g"}, {"measurement": "% ID/g Kidney", "setting": "[5]; 48 h after i.v. injection", "result": "0.05 ± 0.0", "unit": "% ID/g"}, {"measurement": "% ID/g Liver", "setting": "[5]; 48 h after i.v. injection", "result": "0.02 ± 0.0", "unit": "% ID/g"}, {"measurement": "% ID/g Lung", "setting": "[5]; 48 h after i.v. injection", "result": "0.02 ± 0.0", "unit": "% ID/g"}, {"measurement": "% ID/g Muscle", "setting": "[5]; 48 h after i.v. injection", "result": "0.0 ± 0.0", "unit": "% ID/g"}, {"measurement": "% ID/g Skin", "setting": "[5]; 48 h after i.v. injection", "result": "0.01 ± 0.0", "unit": "% ID/g"}, {"measurement": "% ID/g Spleen", "setting": "[5]; 48 h after i.v. injection", "result": "0.01 ± 0.0", "unit": "% ID/g"}, {"measurement": "% ID/g Thyroid", "setting": "[5]; 48 h after i.v. injection", "result": "0.0 ± 0.0", "unit": "% ID/g"}, {"measurement": "% ID/g Tumor", "setting": "[5]; 48 h after i.v. injection", "result": "more than 9 % ID/g"}, {"measurement": "% ID/g Tumor", "setting": "[5]; 48 h after i.v. injection, listed as L19-TNFa fusion protein", "result": "9.55 ± 1.7", "unit": "% ID/g"}]}
{"substance": "TNFα", "values": [{"measurement": "plasma half-life", "setting": "[6]", "result": "less than 30 minutes"}]}
